For one test, the target named is recombinant AP2 core (UniProt P18484 1-621; P63010 1-591; P84092 1-435; P62743 1-142). The test is described as follows: BLI.
For a further test, the target named is AP2 α-appendage (UniProt P17427 702-938). The test is described as follows: ITC. On the technique in general: Isothermal titration calorimetry measures the heat released or taken up as one component is titrated into another.
The next test deals with T1, Cμ2 (UniProt P84092 158-435).
T1 sequence (looked up): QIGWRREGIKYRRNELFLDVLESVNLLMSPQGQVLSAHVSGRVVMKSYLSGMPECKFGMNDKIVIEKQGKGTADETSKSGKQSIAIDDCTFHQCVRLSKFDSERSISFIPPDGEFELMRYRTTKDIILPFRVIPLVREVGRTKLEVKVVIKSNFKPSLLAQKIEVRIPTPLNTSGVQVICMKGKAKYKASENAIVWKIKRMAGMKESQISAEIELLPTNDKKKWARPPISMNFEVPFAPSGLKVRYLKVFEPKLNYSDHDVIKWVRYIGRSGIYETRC
In words: ITC.

Chain of AP2 α-appendage (P17427 702-938): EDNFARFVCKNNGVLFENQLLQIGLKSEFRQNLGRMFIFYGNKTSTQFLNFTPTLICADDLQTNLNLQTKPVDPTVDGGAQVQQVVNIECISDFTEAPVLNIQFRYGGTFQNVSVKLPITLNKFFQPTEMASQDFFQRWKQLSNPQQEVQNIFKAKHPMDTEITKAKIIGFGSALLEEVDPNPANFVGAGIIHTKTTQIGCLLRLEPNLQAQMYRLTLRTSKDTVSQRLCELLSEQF

B1: FCHO1 linker (residues 316-444) (domain or fragment)
chain: TCPEVDEEGFTVRPDVTQNSTAEPSRFSSSDSDFDDEEPRKFYVHIKPAPARAPACSPEAAAAQLRATAGSLILPPGPGGTMKRHSSRDAAGKPQRPRSAPRTSSCAERLQSEEQVSKNLFGPPLESAF
As for B1, the equilibrium dissociation constant (Kd) with recombinant AP2 core was found to be 8.5 ± 2.2 µM.

B2: FCHO1 C peptide (residues 426-448 SEEQVSKNLFGPPLESAFDHEH) (peptide)
peptide: SEEQVSKNLFGPPLESAFDHEH
For the molecule B2, in the test with AP2 α-appendage, the Kd is ~50 µM.

B3: FCHO2 linker (residues 314-444) (domain or fragment)
chain: NIPDVDEEGYSIKPETNQNDTKENHFYSSSDSDSEDEEPKKYRIEIKPMHPNNSHHTMASLDELKVSIGNITLSPAISRHSPVQMNRNLSNEELTKSKPSAPPNEKGTSDLLAWDPLFGPSLDSSSSSSLT
As to B3, the Kd in the test with recombinant AP2 core stood at 9.8 ± 1.5 µM.

B4: FCHO2N1+N2 (domain or fragment, human, UniProt Q0JRZ9 314-357, looked up)
chain: NIPDVDEEGYSIKPETNQNDTKENHFYSSSDSDSEDEEPKKYRI
As to B4, the dissociation constant Kd with Cμ2 is ~25 µM.

For orientation: Kd means the free concentration of one partner at which half of the binding sites on the other are occupied at equilibrium, for simple one-to-one binding.

(Values after article doi:10.1101/2022.04.02.486817 (bioRxiv, 2022).)
